According to patent US20170016915A1, “SCREENING TARGETS AND COMPOSITIONS AND METHODS FOR TREATMENT OF CILIOPATHY DISORDERS” (Duke University, priority 2014, published 2017):
Values belong to the molecule of their own block, whether it stands above or below them. Where a SMILES comes first, the peptide text is derived from it. The star is where a group is joined. Cbz = O=C(OCc1ccccc1)*

B1: GFP-tagged regulatory proteasome non-ATPase subunit 10 (RPN10) (other, UniProt P55036 1-377, looked up)
chain: MVLESTMVCVDNSEYMRNGDFLPTRLQAQQDAVNIVCHSKTRSNPENNVGLITLANDCEVLTTLTPDTGRILSKLHTVQPKGKITFCTGIRVAHLALKHRQGKNHKMRIIAFVGSPVEDNEKDLVKLAKRLKKEKVNVDIINFGEEEVNTEKLTAFVNTLNGKDGTGSHLVTVPPGPSLADALISSPILAGEGGAMLGLGASDFEFGVDPSADPELALALRVSMEEQRQRQEEEARRAAAASAAEAGIATTGTEDSDDALLKMTISQQEFGRTGLPDLSSMTEEEQIAYAMQMSLQGAEFGQAESADIDASSAMDTSEPAKEEDDYDVMQDPEFLQSVLENLPGVDPNNEAIRNAMGSLASQATKDGKKDKKEEDKK
notes: Transfected expression construct; also called GFP-tagged RPN10; not shown: GFP tag
B2: BBS5 (other, UniProt Q8N3I7 1-341, looked up)
chain: MSVLDALWEDRDVRFDLSAQQMKTRPGEVLIDCLDSIEDTKGNNGDRGRLLVTNLRILWHSLALSRVNVSVGYNCILNITTRTANSKLRGQTEALYILTKCNSTRFEFIFTNLVPGSPRLFTSVMAVHRAYETSKMYRDFKLRSALIQNKQLRLLPQEHVYDKINGVWNLSSDQGNLGTFFITNVRIVWHANMNDSFNVSIPYLQIRSIKIRDSKFGLALVIESSQQSGGYVLGFKIDPVEKLQESVKEINSLHKVYSASPIFGVDYEMEEKPQPLEALTVEQIQDDVEIDSDGHTDAFVAYFADGNKQQDREPVFSEELGLAIEKLKDGFTLQGLWEVMS
notes: Tested in the same co-IP series as the Myc- or HA-tagged BBS proteins
B4: GFP-tagged regulatory proteasome non-ATPase subunit 13 (RPN13) (other, UniProt Q16186 1-407, looked up)
chain: MTTSGALFPSLVPGSRGASNKYLVEFRAGKMSLKGTTVTPDKRKGLVYIQQTDDSLIHFCWKDRTSGNVEDDLIIFPDDCEFKRVPQCPSGRVYVLKFKAGSKRLFFWMQEPKTDQDEEHCRKVNEYLNNPPMPGALGASGSSGHELSALGGEGGLQSLLGNMSHSQLMQLIGPAGLGGLGGLGALTGPGLASLLGSSGPPGSSSSSSSRSQSAAVTPSSTTSSTRATPAPSAPAAASATSPSPAPSSGNGASTAASPTQPIQLSDLQSILATMNVPAGPAGGQQVDLASVLTPEIMAPILANADVQERLLPYLPSGESLPQTADEIQNTLTSPQFQQALGMFSAALASGQLGPLMCQFGLPAEAVEAANKGDVEAFAKAMQNNAKPEQKEGDTKDKKDEEEDMSLD
notes: Transfected construct; not shown: GFP tag

Columns and labels:
NICD = assay: Immunoblot of NICD in BBS4-overexpressing cells treated with proteasome inhibitors; format: cell-based; conditions: MG132 30 μM 5 hours, lactacystin 20 μM 5 hours
Experimental: (§3) Transfected cells and mouse tissues were lysed in modified RIPA buffer [150 mM sodium chloride, 50 mM Tris-HCl, pH7.4, 1% nonidet P-40, 0.1% sodium deoxycholate, 1 mM EDTA] with 1× proteasome inhibitor (Roche) and centrifuged at 4° C. for 15 minutes. […] Total protein in each sample was separated by SDS-PAGE on 4% to 15% Mini-PROTEAN TGX Precast Gel (Bio-Rad) with a Spectra Multicolor Broad Range Protein Ladder (Fermentas) and transferred to an Immun-Blot PVDF Membrane (Bio-Rad). […] Densitometric analysis was performed with Image Lab (Bio-Rad), Quantity One (Bio-Rad), or ImageJ 1.44p (NIH) software.
(§4) Drug treatment was carried out at a final concentration of 10 μM SFN (Sigma-Aldrich) for 6 to 24 hours, 30 μm N-carbobenzoxyl- ? -leucinyl- ? -leucinyl- ? -norleucinal (MG132; Calbiochem) for 5 hours, 20 μM lactacystin (EMD Bioscience) for 5 hours, and 50 ng/ml TNF-α (Sigma-Aldrich) for 12 hours.

JAG1 = assay: Immunoblot of GFP-JAG1 in BBS4-overexpressing cells treated with proteasome inhibitor; format: cell-based; conditions: proteasome inhibitor 5 hours
Experimental: as §3, §4

[1] = test system: bbs4, bbs1 and ofd1 morphant zebrafish embryos; assay: Convergent extension (CE) and somite defects in morphant zebrafish embryos, coinjection; format: in vivo; conditions: coinjection with bbs4 morpholino
Experimental: (§1) Morpholinos against bbs1 ([NT] ID NO: 13), bbs4 ([NT] ID NO: 14), and ofd1 ([NT] ID NO: 15) were purchased from Gene Tools, LLC. Human RPN10, RPN13, and RPT6 mRNA were in vitro transcribed with a mMESSAGE mMACHINE SP6 Kit (Ambion). SFN was dissolved in DMSO (Sigma-Aldrich) at a stock concentration of 1 M and further diluted in water to 10 mM. The morpholino and mRNA or SFN were mixed, and a volume of 0.5 nl was microinjected.

[2] = test system: her4 expression (Notch target) in bbs4 morphant zebrafish embryos; assay: Whole-mount RNA in situ hybridization of her4 in morphant zebrafish; format: in vivo; conditions: bbs4 morphants, coinjection, 4.5 dpf
Experimental: as §1, with “microinjected. Zebrafish embryos were fixed overnight in 4% PFA at 4° C. Residual pigment was removed by bleaching with 3% H2O2/0.5% KOH.” for “microinjected.”

BBS10 = target: T1, BBS10 (UniProt Q8TAM1 1-723, limits assumed); assay: co-immunoprecipitation, 1% Triton X-100
T1 construct: Tested in the same co-IP series as the Myc- or HA-tagged BBS proteins
T1 sequence (looked up): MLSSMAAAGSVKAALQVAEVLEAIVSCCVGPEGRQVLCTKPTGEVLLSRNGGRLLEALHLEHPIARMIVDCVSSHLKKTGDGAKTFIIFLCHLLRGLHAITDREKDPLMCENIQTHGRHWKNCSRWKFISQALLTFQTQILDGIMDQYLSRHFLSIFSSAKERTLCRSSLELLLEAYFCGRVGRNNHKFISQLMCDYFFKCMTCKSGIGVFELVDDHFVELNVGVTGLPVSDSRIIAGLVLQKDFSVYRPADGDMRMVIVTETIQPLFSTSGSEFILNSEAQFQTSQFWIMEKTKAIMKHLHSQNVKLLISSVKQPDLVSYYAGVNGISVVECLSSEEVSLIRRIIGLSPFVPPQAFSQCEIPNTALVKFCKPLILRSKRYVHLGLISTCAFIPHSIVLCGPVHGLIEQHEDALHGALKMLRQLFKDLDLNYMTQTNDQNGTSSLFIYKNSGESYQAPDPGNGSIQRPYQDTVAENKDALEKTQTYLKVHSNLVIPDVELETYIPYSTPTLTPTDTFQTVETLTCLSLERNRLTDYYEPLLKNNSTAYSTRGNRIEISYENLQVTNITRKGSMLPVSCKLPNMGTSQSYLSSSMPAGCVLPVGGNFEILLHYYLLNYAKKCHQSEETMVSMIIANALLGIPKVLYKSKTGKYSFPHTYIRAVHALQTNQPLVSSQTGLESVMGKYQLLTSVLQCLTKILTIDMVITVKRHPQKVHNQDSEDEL
Experimental: (§2) First, an unbiased mass spectrometry screen was conducted to identify putative OFD1-interacting proteins. This experiment uncovered a spectrum of proteasomal subunits including regulatory proteasome ATPase subunit 6 (RPT6), a finding confirmed by semiendogenous coimmunoprecipitation (FIG. 4A). […] To test the physiological relevance of a BBS-proteasome interactome, it was determined that BBS1 and RPN10 interacted at endogenous levels in protein lysates isolated from C57BL/6 mouse testes (FIG. 4A). To probe the relevance of these interactions, the question was asked whether loss of OFD1 or BBS4 alters the composition of the proteasome with respect to its subunits. Using a stable cell line expressing tagged regulatory proteasome non-ATPase subunit 11 (RPN11) (37), OFD1 was suppressed, 26S proteasome complexes were purified, and a robust reduction was observed (60%±8%) of 26S-bound regulatory proteasome ATPase subunit 2 (RPT2) in OFD1-depleted cells in comparison with that in control, while total RPT2 protein abundance was not affected by OFD1 depletion (FIG. 4B).

[3] = target: B4; assay: co-immunoprecipitation, 1% Triton X-100
Experimental: as §2

[4] = target: T2, GFP-tagged regulatory proteasome ATPase subunit 6 (RPT6) (UniProt P62195 1-406); assay: co-immunoprecipitation, 1% Triton X-100
T2 construct: Transfected construct; not shown: GFP tag
Experimental: as §2

[5] = target: B1; assay: co-immunoprecipitation, 1% Triton X-100
Experimental: as §2

BBS5 = target: B2; assay: co-immunoprecipitation, 1% Triton X-100
Experimental: as §2

T2 sequence (P62195 whole entry): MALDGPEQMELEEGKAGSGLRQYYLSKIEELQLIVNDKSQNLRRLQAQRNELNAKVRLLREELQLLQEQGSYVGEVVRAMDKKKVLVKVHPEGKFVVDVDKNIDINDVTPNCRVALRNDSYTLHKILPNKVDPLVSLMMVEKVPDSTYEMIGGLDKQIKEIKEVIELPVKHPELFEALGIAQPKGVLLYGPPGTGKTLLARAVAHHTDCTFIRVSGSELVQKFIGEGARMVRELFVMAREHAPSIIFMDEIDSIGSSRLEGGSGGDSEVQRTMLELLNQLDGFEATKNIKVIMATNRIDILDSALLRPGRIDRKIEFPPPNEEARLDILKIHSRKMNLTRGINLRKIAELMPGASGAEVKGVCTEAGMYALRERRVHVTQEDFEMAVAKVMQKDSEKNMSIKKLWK

Molecule: CC(C)C[C@@H](C=O)NC(=O)[C@H](CC(C)C)NC(=O)[C@H](CC(C)C)NC(=O)OCc1ccccc1 [MG132] (Cbz-Leu-Leu-Leu-aldehyde)
NICD protein levels, of basal levels (NICD): 93%
JAG1 levels, of basal levels (JAG1): 99%±38%

Molecule: CC(=O)N[C@@H](CSC(=O)[C@]1([C@@H](O)C(C)C)NC(=O)[C@H](C)[C@@H]1O)C(=O)O [lactacystin]
NICD protein levels, of basal levels (NICD): 138%

Molecule: CC1(O)CCOC(=O)C1 (racemic) [MVA, (±)-β-hydroxy-β-methyl-δ-valerolactone]
bbs4 morphant zebrafish with CE defects ([1]; 9±1 ss, 47.8% without MVA): 11.4%
bbs4 morphants with CE and somitic defects ([1]; blind scoring at 9±1 ss): rescues
ectopic expression of her4 in neural structures [2]: reduced

Molecule: B1
binding result (BBS10): no binding

Molecule: B2
binding result [3]: no binding
binding result [4]: no binding
binding result [5]: no binding

binding result (BBS5): no binding
binding result (BBS10): no binding
B3: GFP-tagged PSMB1 (proteasome subunit beta type 1, subunit in the 20S particle) (other, UniProt P20618 1-241, looked up)
chain: MLSSTAMYSAPGRDLGMEPHRAAGPLQLRFSPYVFNGGTILAIAGEDFAIVASDTRLSEGFSIHTRDSPKCYKLTDKTVIGCSGFHGDCLTLTKIIEARLKMYKHSNNKAMTTGAIAAMLSTILYSRRFFPYYVYNIIGGLDEEGKGAVYSFDPVGSYQRDSFKAGGSASAMLQPLLDNQVGFKNMQNVEHVPLSLDRAMRLVKDVFISAAERDVYTGDALRICIVTKEGIREETVSLRKD
notes: as for B4

Molecule: B4
binding result (BBS10): no binding
